Results from patent US20240327530A1 (ICHNOS SCIENCES, published 2024).
One block for each binder: values may come before it.

Columns and labels:
[1] = target: T1, Human IL-1RAP, membrane-bound on human cells (HaCaT, dermal fibroblasts, neutrophils, PBMC, whole blood) (human, UniProt Q9NPH3 21-570); test: flow cytometry on HaCaT wild-type cells, anti-human IgG PE-Cyanine7, relative geometric MFI (isotype subtracted)
T1 construct: Endogenous protein on cells
T1 sequence: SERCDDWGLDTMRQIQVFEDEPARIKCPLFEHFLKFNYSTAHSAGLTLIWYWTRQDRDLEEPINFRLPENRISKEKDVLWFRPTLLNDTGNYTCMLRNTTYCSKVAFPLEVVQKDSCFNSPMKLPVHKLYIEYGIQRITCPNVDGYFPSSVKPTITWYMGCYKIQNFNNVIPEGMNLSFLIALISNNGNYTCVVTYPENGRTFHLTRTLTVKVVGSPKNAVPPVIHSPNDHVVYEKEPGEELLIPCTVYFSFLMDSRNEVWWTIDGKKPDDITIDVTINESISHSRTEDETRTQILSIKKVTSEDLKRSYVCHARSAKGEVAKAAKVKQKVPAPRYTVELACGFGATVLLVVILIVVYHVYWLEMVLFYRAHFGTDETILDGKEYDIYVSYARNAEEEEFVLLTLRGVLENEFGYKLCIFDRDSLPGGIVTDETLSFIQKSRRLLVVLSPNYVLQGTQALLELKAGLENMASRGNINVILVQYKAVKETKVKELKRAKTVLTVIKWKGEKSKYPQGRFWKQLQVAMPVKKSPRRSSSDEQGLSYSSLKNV
Description: A dose-response of anti-human IL-1RAP_candidate_1 (●) or Isotype control_5 (▪) was incubated with various cell lines and cell types. Bound antibodies were detected with a monoclonal anti-human IgG PE-Cyanine7 secondary antibody. The graphs show the nonlinear sigmoidal regression binding curves (Relative Geometric Mean Fluorescence Intensity) for each cell lines. Each data point is a measurement for a given cell line. Multiple independent experiments were performed across several donors (HaCaT and HaCaT IL-1RAP KO: 4 and 3 independent experiments; Human Dermal Fibroblasts: 2 independent experiments—total of 5 donors; Human Neutrophil: 2 experiments—total of 6 donors; Cyno Dermal Fibroblasts: 2 independent experiment—total of 4 donors).
In brief, cells were harvested, counted, and plated at 50,000 cells/well in a 96-well round-bottom plate. […] The cells were gated based on size on FSC vs SSC and analyzed for PE-Cyanine7-geometric mean (geomean) fluorescence intensity using FLOWJO® software. Finally, relative geomean fluorescence intensity was calculated by subtracting fluorescence of anti-human IL-1RAP_candidate_1 per fluorescence of Isotype control_5. […]

[2] = target: T2, Recombinant mouse IL-1RAP-his (Sino Biologicals, catalog no. 52657-M08H) (mouse, UniProt Q61730 21-350); test: SPR, mouse IgG2a LALA captured by anti-mouse Fc, mouse IL-1RAP-his as analyte, 1:1 fit
T2 construct: Bought; not shown: His tag of the bought protein
T2 sequence: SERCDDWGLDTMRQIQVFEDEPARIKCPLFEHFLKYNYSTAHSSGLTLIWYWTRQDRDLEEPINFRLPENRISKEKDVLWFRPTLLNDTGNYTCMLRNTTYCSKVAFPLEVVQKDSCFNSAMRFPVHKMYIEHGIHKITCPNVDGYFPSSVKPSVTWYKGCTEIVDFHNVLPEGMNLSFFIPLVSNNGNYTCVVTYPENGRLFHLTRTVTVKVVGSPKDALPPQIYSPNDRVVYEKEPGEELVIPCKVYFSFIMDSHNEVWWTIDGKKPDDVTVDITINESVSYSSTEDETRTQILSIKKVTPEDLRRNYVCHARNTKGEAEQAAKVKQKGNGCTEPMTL
Description: Surface plasmon resonance (SPR) was used to measure the binding affinities of mouse IgG2a LALA molecules for mouse IL-1RAP. Affinity was measured on a BIACORE™ T200 instrument (BIACORE™ GE […]®) at 25° C. and analyzed with the BIACORE™ T200 Evaluation Software (v3.1). Measurements were performed on Series S CM5 sensor chips (BIACORE™ T200, BIACORE™, GE […]®, catalog no. BR100530) coupled with anti-mouse IgG Fc (BIACORE™, GE […]®, catalog no. BR100838) using a commercial amine coupling kit (BIACORE™, GE […]®, catalog no. BR100050). SPR measurements were performed with commercially available recombinant mouse IL-1RAP-his (Sino Biologicals, catalog no. 52657-M08H). The affinity to mouse IL-1RAP was assessed by immobilizing anti-mouse IL-1RAP mouse IgG2a LALA molecule and using mouse IL-1RAP protein as analyte. Around 150 RU of mouse IgG2a LALA was captured on fc2 of a Series S CM5 sensor chip coupled with anti-mouse IgG Fc. Mouse IL-1RAP-his was injected in multi cycle kinetic at different concentrations ranging from 0.14 to 100 nM, in HBS-EP+ buffer (BIACORE™, GE […]®, catalog no. BR100669) at a flow rate of 30 μl/min for 3 min on fc1 and fc2 (fc1 being used as reference). Dissociation was monitored for 15 min. After each cycle, the surface was regenerated with 60 μl of regeneration solution provided with anti-mouse IgG Fc capture kit (BIACORE™ GE […]®, catalog no. BR100838). Experimental data were processed using the 1:1 Langmuir kinetic fitting model. Measurements included zero-concentration samples for referencing. Chi², U- and residual values were used to evaluate the quality of a fit between the experimental data and individual binding models.

- EC50 (read off the curve) [1]: ~0.1 µg/mL
B1: Anti-IL-1RAP-C8-RecC-ES-IgG1LALA (antibody, V domains shown)
VH: QVQLVQSGAEVKKPGSSVKVSCKASGSPAEPYAIQWVRQAPGQGLEWMGYIIPSLGGYDYAQKFQGRVTITADESTSTAYMELSSLRSEDTAVYYCARGQTLYESGRQFDIWGQGTLVTVSS
VL: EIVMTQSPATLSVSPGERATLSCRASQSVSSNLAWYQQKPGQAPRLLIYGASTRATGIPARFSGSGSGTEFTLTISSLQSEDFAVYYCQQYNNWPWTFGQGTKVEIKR
notes: also called ISB 880-C8-recC-ES

- Kd [2]: 0.545 nM
- koff [2]: 7.46e-05 s⁻¹
- kon [2]: 138000 M⁻¹ s⁻¹
B2: Anti-IL-1RAP-C3-A3 mmIgG2a LALA (antibody, V domains shown)
VH: EVQLLESGGGLVQPGGSLRLSCAASGFIFSHYGMSWVRQAPGKGLEWVSAISYDGEGTLYADSVKGRFTISRDNSKNTLYLQMNSLRAEDTAVYYCARFRYYTAFDYWGQGTLVTVSS
VL: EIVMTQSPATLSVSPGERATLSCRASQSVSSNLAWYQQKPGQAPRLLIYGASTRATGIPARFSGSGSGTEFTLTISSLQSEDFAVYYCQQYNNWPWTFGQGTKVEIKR
notes: also called anti-IL-1RAP-C3-A3 mouse IgG2a LALA
